Assay results from publication PMC3002279, “Polyphosphate Kinase from M. tuberculosis: An Interconnect between the Genetic and Biochemical Role” (PLoS ONE, 2010).

Biological target: the molecule itself
Assay: SEC; […] (50 mM Tris pH 7.5, 150 mM NaCl, 4 mM MgCl2, 10% glycerol) […]

B1: Polyphosphate Kinase (PPK) from M. tuberculosis, recombinant, untagged (enzyme)
chain: MMSNDRKVTEIENSPVTEVRPEEHAWYPDDSALAAPPAATPAAISDQLPSDRYLNRELSWLDFNARVLALAADKSMPLLERAKFLAIFASNLDEFYMVRVAGLKRRDEMGLSVRSADGLTPREQLGRIGEQTQQLASRHARVFLDSVLPALGEEGIYIVTWADLDQAERDRLSTYFNEQVFPVLTPLAVDPAHPFPFVSGLSLNLAVTVRQPEDGTQHFARVKVPDNVDRFVELAAREASEEAAGTEGRTALRFLPMEELIAAFLPVLFPGMEIVEHHAFRITRNADFEVEEDRDEDLLQALERELARRRFGSPVRLEIADDMTESMLELLLRELDVHPGDVIEVPGLLDLSSLWQIYAVDRPTLKDRTFVPATHPAFAERETPKSIFATLREGDVLVHHPYDSFSTSVQRFIEQAAADPNVLAIKQTLYRTSGDSPIVRALIDAAEAGKQVVALVEIKARFDEQANIAWARALEQAGVHVAYGLVGLKTHCKTALVVRREGPTIRRYCHVGTGNYNSKTARLYEDVGLLTAAPDIGADLTDLFNSLTGYSRKLSYRNLLVAPHGIRAGIIDRVEREVAAHRAEGAHNGKGRIRLKMNALVDEQVIDALYRASRAGVRIEVVVRGICALRPGAQGISENIIVRSILGRFLEHSRILHFRAIDEFWIGSADMMHRNLDRRVEVMAQVKNPRLTAQLDELFESALDPCTRCWELGPDGQWTASPQEGHSVRDHQESLMERHRSP
notes: also called M. tu PPK; M.tu PPK
  stoichiometry N: 4
